Assay results published in the RNAGym collection of RNA variant scans (doi:10.1093/nar/gkz1192).

B1: CPEB3 Ribozyme (parent)
chain: UAACAGGGGGCCACAGCAGAAGCGUUCACGUCGCAGCCCCUGUCAGAUUCUGGUGAAUCUGCGAAUUCUGCUGUAUAUCUC

Variants of: B1
Assay: self-cleavage, relative activity (ratio to wild type); higher = more cleavage; in vitro, sequencing
In short: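 Barcoded CPEB3 ribozyme mutants, produced by rounds of error-prone PCR, self-cleaved while being transcribed with T7 RNA polymerase for 5 hours at 37°C and during a subsequent 15 min DNase I step before EDTA was added. Sequencing of template-switched cDNA on Illumina gave cleaved and total reads, and DNA sequencing assigned barcodes to variants. Each variant's relative activity is its cleaved/total read fraction divided by the unmutated ribozyme's fraction, averaged across three batches. A variant needed a minimum of 5 reads.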

Row | Variant | self-cleavage
1 | UAACAGGGGGCCACAGCAGAAGCGUUUACGUCGCAGCCCCUGUCAGAUUCUGGUGAGUCUGCGAAUUCUGCUGUAUAUCUC [C27U A57G] | 0.17
2 | UAACAGGGGGCCACAGCAGAAGCGUUUACGUCGCAGCCCCUGUCAGAUUCUGGUGAAUCUGCGGAUUCUGCUGUAUAUCUC [C27U A64G] | 0.24
3 | UAACAGGGGGCCACAGCAGAAGCGUUUACGUCGCAGCCCCUGUCAGAUUCUGGUGAAUCUGCGUAUUCUGCUGUAUAUCUC [C27U A64U] | 0.26
4 | UAACAGGGGGCCACAGCAGAAGCGUUUACGUCGCAGCCCCUGUCAGAUUCUGGUGAAUCUGCGACUUCUGCUGUAUAUCUC [C27U A65C] | 0.1
5 | UAACAGGGGGCCACAGCAGAAGCGUUUACGUCGCAGCCCCUGUCAGAUUCUGGUGAAUCUGCGAGUUCUGCUGUAUAUCUC [C27U A65G] | 0.24
6 | UAACAGGGGGCCACAGCAGAAGCGUUUACGUCGCAGCCCCUGUCAGAUUCUGGUGAAUCUGCGAUUUCUGCUGUAUAUCUC [C27U A65U] | 0.14
7 | UAACAGGGGGCCACAGCAGAAGCGUUUACGUCGCAGCCCCUGUCAGAUUCUGGUGAAUCUGCGAAUUCUGCUGUAUUUCUC [C27U A77U] | 0.09
8 | UAACAGGGGGCCACAGCAGAAGCGUUUAAGUCGCAGCCCCUGUCAGAUUCUGGUGAAUCUGCGAAUUCUGCUGUAUAUCUC [C27U C29A] | 0.15
9 | UAACAGGGGGCCACAGCAGAAGCGUUUACGUCGCAGUCCCUGUCAGAUUCUGGUGAAUCUGCGAAUUCUGCUGUAUAUCUC [C27U C37U] | 0.2
10 | UAACAGGGGGCCACAGCAGAAGCGUUUACGUCGCAGCUCCUGUCAGAUUCUGGUGAAUCUGCGAAUUCUGCUGUAUAUCUC [C27U C38U] | 0.32
11 | UAACAGGGGGCCACAGCAGAAGCGUUUACAUCGCAGCCCCUGUCAGAUUCUGGUGAAUCUGCGAAUUCUGCUGUAUAUCUC [C27U G30A] | 0.26
12 | UAACAGGGGGCCACAGCAGAAGCGUUUACGUCUCAGCCCCUGUCAGAUUCUGGUGAAUCUGCGAAUUCUGCUGUAUAUCUC [C27U G33U] | 0.34
13 | UAACAGGGGGCCACAGCAGAAGCGUUUACGUCGCAGCCCCUGUCAGAUUCUGGUGAAUCUGCAAAUUCUGCUGUAUAUCUC [C27U G63A] | 0.22
14 | UAACAGGGGGCCACAGCAGAAGCGUUUACGCCGCAGCCCCUGUCAGAUUCUGGUGAAUCUGCGAAUUCUGCUGUAUAUCUC [C27U U31C] | 0.46
15 | UAACAGGGGGCCACAGCAGAAGCGUUUACGUCGCAGCCCCAGUCAGAUUCUGGUGAAUCUGCGAAUUCUGCUGUAUAUCUC [C27U U41A] | 0.2
16 | UAACAGGGGGCCACAGCAGAAGCGUUUACGUCGCAGCCCCCGUCAGAUUCUGGUGAAUCUGCGAAUUCUGCUGUAUAUCUC [C27U U41C] | 0.2
17 | UAACAGGGGGCCACAGCAGAAGCGUUUACGUCGCAGCCCCGGUCAGAUUCUGGUGAAUCUGCGAAUUCUGCUGUAUAUCUC [C27U U41G] | 0.11

Row | Variant | self-cleavage
18 | UAACAGGGGGCCACAGCAGAAGCGUUUACGUCGCAGCCCCUGACAGAUUCUGGUGAAUCUGCGAAUUCUGCUGUAUAUCUC [C27U U43A] | 0.29
19 | UAACAGGGGGCCACAGCAGAAGCGUUUACGUCGCAGCCCCUGCCAGAUUCUGGUGAAUCUGCGAAUUCUGCUGUAUAUCUC [C27U U43C] | 0.21
20 | UAACAGGGGGCCACAGCAGAAGCGUUUACGUCGCAGCCCCUGUCAGACUCUGGUGAAUCUGCGAAUUCUGCUGUAUAUCUC [C27U U48C] | 0.18
21 | UAACAGGGGGCCACAGCAGAAGCGUUUACGUCGCAGCCCCUGUCAGAUCCUGGUGAAUCUGCGAAUUCUGCUGUAUAUCUC [C27U U49C] | 0.15
22 | UAACAGGGGGCCACAGCAGAAGCGUUUACGUCGCAGCCCCUGUCAGAUUCAGGUGAAUCUGCGAAUUCUGCUGUAUAUCUC [C27U U51A] | 0.17
23 | UAACAGGGGGCCACAGCAGAAGCGUUUACGUCGCAGCCCCUGUCAGAUUCUGGAGAAUCUGCGAAUUCUGCUGUAUAUCUC [C27U U54A] | 0.34
24 | UAACAGGGGGCCACAGCAGAAGCGUUUACGUCGCAGCCCCUGUCAGAUUCUGGCGAAUCUGCGAAUUCUGCUGUAUAUCUC [C27U U54C] | 0.35
25 | UAACAGGGGGCCACAGCAGAAGCGUUUACGUCGCAGCCCCUGUCAGAUUCUGGUGAACCUGCGAAUUCUGCUGUAUAUCUC [C27U U58C] | 0.15
26 | UAACAGGGGGCCACAGCAGAAGCGUUUACGUCGCAGCCCCUGUCAGAUUCUGGUGAAUCCGCGAAUUCUGCUGUAUAUCUC [C27U U60C] | 0.14
27 | UAACAGGGGGCCACAGCAGAAGCGUUUACGUCGCAGCCCCUGUCAGAUUCUGGUGAAUCUGCGAACUCUGCUGUAUAUCUC [C27U U66C] | 0.15
28 | UAACAGGGGGCCACAGCAGAAGCGUUUACGUCGCAGCCCCUGUCAGAUUCUGGUGAAUCUGCGAAUCCUGCUGUAUAUCUC [C27U U67C] | 0.16
29 | UAACAGGGGGCCACAGCAGAAGCGUUUACGUCGCAGCCCCUGUCAGAUUCUGGUGAAUCUGCGAAUUCUGCAGUAUAUCUC [C27U U72A] | 0.18
30 | UAACAGGGGGCCACAGCAGAAGCGUUUACGUCGCAGCCCCUGUCAGAUUCUGGUGAAUCUGCGAAUUCUGCCGUAUAUCUC [C27U U72C] | 0.24
31 | UAACAGGGGGCCACAGCAGAAGCGUUUACGUCGCAGCCCCUGUCAGAUUCUGGUGAAUCUGCGAAUUCUGCUGAAUAUCUC [C27U U74A] | 0.5
32 | UAACAGGGGGCCACAGCAGAAGCGUUUACGUCGCAGCCCCUGUCAGAUUCUGGUGAAUCUGCGAAUUCUGCUGCAUAUCUC [C27U U74C] | 0.36
33 | UAACAGGGGGCCACAGCAGAAGCGUUUACGUCGCAGCCCCUGUCAGAUUCUGGUGAAUCUGCGAAUUCUGCUGUAAAUCUC [C27U U76A] | 0.28
34 | UAACAGGGGGCCACAGCAGAAGCGUUUACGUCGCAGCCCCUGUCAGAUUCUGGUGAAUCUGCGAAUUCUGCUGUACAUCUC [C27U U76C] | 0.19
